From IntAct's records for PubMed 19219046

B1: ATP-dependent RNA helicase DDX19B (Homo sapiens), Q9UMR2-1 (parent)
chain: MATDSWALAVDEQEAAAESLSNLHLKEEKIKPDTNGAVVKTNANAEKTDEEEKEDRAAQSLLNKLIRSNLVDNTNQVEVLQRDPNSPLYSVKSFEELRLKPQLLQGVYAMGFNRPSKIQENALPLMLAEPPQNLIAQSQSGTGKTAAFVLAMLSQVEPANKYPQCLCLSPTYELALQTGKVIEQMGKFYPELKLAYAVRGNKLERGQKISEQIVIGTPGTVLDWCSKLKFIDPKKIKVFVLDEADVMIATQGHQDQSIRIQRMLPRNCQMLLFSATFEDSVWKFAQKVVPDPNVIKLKREEETLDTIKQYYVLCSSRDEKFQALCNLYGAITIAQAMIFCHTRKTASWLAAELSKEGHQVALLSGEMMVEQRAAVIERFREGKEKVLVTTNVCARGIDVEQVSVVINFDLPVDKDGNPDNETYLHRIGRTGRFGKRGLAVNMVDSKHSMNILNRIQEHFNKKIERLDTDDLDEIEKIAN

Variants of: B1
Conditions: with NUP214, P35658-1
Sequence of NUP214, P35658-1 (P35658 whole entry): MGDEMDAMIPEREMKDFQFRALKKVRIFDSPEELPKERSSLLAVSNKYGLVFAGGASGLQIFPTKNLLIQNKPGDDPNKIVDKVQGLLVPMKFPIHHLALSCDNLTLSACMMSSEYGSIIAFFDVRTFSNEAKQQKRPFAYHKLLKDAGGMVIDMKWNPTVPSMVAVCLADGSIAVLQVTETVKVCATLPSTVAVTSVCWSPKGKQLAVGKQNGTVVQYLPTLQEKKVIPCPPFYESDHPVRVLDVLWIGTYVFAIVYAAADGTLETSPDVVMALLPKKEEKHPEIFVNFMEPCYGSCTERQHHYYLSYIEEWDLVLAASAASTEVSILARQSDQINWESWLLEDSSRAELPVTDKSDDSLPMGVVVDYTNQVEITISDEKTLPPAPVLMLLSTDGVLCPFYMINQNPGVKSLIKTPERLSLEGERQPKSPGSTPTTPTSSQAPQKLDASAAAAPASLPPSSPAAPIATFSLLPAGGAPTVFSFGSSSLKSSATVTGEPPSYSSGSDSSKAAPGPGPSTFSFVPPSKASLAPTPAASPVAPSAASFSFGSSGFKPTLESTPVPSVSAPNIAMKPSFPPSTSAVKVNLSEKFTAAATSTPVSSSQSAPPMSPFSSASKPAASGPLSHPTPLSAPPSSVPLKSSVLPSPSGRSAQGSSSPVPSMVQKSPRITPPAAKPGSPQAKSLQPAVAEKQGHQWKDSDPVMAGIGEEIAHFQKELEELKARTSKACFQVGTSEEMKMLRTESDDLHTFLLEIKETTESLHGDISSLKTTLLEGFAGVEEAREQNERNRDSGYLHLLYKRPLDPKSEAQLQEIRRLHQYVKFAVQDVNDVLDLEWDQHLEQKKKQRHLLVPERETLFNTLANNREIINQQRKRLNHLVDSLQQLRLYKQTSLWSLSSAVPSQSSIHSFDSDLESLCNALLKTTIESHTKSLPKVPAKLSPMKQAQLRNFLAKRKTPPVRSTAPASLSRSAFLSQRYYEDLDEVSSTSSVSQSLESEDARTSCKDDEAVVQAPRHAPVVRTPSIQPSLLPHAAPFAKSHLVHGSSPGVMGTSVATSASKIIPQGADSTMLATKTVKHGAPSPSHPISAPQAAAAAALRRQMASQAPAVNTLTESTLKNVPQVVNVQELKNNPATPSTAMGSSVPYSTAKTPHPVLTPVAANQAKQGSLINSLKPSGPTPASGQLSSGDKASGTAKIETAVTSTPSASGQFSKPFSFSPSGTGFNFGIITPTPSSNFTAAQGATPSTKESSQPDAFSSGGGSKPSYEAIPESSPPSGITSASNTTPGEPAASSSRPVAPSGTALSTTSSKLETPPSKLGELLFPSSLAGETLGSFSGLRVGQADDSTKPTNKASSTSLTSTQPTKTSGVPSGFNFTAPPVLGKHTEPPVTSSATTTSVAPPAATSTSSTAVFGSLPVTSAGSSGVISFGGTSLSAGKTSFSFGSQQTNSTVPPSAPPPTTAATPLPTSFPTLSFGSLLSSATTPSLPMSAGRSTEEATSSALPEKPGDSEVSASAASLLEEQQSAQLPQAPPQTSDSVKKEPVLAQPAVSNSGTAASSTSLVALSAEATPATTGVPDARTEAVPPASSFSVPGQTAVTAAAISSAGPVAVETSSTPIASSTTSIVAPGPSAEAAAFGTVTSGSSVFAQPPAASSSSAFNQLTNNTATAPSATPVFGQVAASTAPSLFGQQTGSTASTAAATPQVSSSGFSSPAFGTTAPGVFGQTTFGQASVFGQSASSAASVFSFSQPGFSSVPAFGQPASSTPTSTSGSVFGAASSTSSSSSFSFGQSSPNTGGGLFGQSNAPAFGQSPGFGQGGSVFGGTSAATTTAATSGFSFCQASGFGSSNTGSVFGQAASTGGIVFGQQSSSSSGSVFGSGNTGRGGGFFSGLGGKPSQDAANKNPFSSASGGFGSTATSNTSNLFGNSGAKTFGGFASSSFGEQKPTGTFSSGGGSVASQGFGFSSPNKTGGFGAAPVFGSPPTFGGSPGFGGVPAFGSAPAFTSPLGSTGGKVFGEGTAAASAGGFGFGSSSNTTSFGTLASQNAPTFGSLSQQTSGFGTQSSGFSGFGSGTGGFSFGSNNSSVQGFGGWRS

effect of a mutation on the interaction	Variant
disrupting interaction	MATDSWALAVDEQEAAAESLSNLHLKEEKIKPDTNGAVVKTNANAEKTDEEEKEDRAAQSLLNKLIRSNLVDNTNQVEVLQRDPNSPLYSVKSFEELRLKPQLLQGVYAMGFNRPSKIQENALPLMLAEPPQNLIAQSQSGTGKTAAFVLAMLSQVEPANKYPQCLCLSPTYELALQTGKVIEQMGKFYPELKLAYAVRGNKLERGQKISEQIVIGTPGTVLDWCSKLKFIDPKKIKVFVLDEADVMIATQGHQDQSIDIQRMLPRNCQMLLFSATFEDSVWKFAQKVVPDPNVIKLKREEETLDTIKQYYVLCSSRDEKFQALCNLYGAITIAQAMIFCHTRKTASWLAAELSKEGHQVALLSGEMMVEQRAAVIERFREGKEKVLVTTNVCARGIDVEQVSVVINFDLPVDKDGNPDNETYLHRIGRTGRFGKRGLAVNMVDSKHSMNILNRIQEHFNKKIERLDTDDLDEIEKIAN [R259D]
disrupting interaction	MATDSWALAVDEQEAAAESLSNLHLKEEKIKPDTNGAVVKTNANAEKTDEEEKEDRAAQSLLNKLIRSNLVDNTNQVEVLQRDPNSPLYSVKSFEELRLKPQLLQGVYAMGFNRPSKIQENALPLMLAEPPQNLIAQSQSGTGKTAAFVLAMLSQVEPANKYPQCLCLSPTYELALQTGKVIEQMGKFYPELKLAYAVRGNKLERGQKISEQIVIGTPGTVLRWCSKLKFIDPKKIKVFVLDEADVMIATQGHQDQSIRIQRMLPRNCQMLLFSATFEDSVWKFAQKVVPDPNVIKLKREEETLDTIKQYYVLCSSRDEKFQALCNLYGAITIAQAMIFCHTRKTASWLAAELSKEGHQVALLSGEMMVEQRAAVIERFREGKEKVLVTTNVCARGIDVEQVSVVINFDLPVDKDGNPDNETYLHRIGRTGRFGKRGLAVNMVDSKHSMNILNRIQEHFNKKIERLDTDDLDEIEKIAN [D223R]
disrupting interaction	MATDSWALAVDEQEAAAESLSNLHLKEEKIKPDTNGAVVKTNANAEKTDEEEKEDRAAQSLLNKLIRSNLVDNTNQVEVLQRDPNSPLYSVKSFEELRLKPQLLQGVYAMGFNRPSKIQENALPLMLAEPPQNLIAQSQSGTGKTAAFVLAMLSQVEPANKYPQCLCLSPTYELALQTGKVIEQMGKFYPELKLAYAVRGNKLERGQKISEQIVIGTPGTVLDWCSKLKFIDPKKIKVFVLDEADVMIATQGHQDQSIRIQAMLPRNCQMLLFSATFEDSVWKFAQKVVPDPNVIKLKREEETLDTIKQYYVLCSSRDEKFQALCNLYGAITIAQAMIFCHTRKTASWLAAELSKEGHQVALLSGEMMVEQRAAVIERFREGKEKVLVTTNVCARGIDVEQVSVVINFDLPVDKDGNPDNETYLHRIGRTGRFGKRGLAVNMVDSKHSMNILNRIQEHFNKKIERLDTDDLDEIEKIAN [R262A]
disrupting interaction	MATDSWALAVDEQEAAAESLSNLHLKEEKIKPDTNGAVVKTNANAEKTDEEEKEDRAAQSLLNKLIRSNLVDNTNQVEVLQRDPNSPLYSVKSFEELRLKPQLLQGVYAMGFNRPSKIQENALPLMLAEPPQNLIAQSQSGTGKTAAFVLAMLSQVEPANKYPQCLCLSPTYELALQTGKVIEQMGKFYPELKLAYAVRGNKLERGQKISEQIVIGTPGTVLDWCSKLKFIDPKKIKVFVLDEADVMIATQGHQDQSARIQRMLPRNCQMLLFSATFEDSVWKFAQKVVPDPNVIKLKREEETLDTIKQYYVLCSSRDEKFQALCNLYGAITIAQAMIFCHTRKTASWLAAELSKEGHQVALLSGEMMVEQRAAVIERFREGKEKVLVTTNVCARGIDVEQVSVVINFDLPVDKDGNPDNETYLHRIGRTGRFGKRGLAVNMVDSKHSMNILNRIQEHFNKKIERLDTDDLDEIEKIAN [I258A]
